# From the supplement of paper PMC7877785
# ± gives the uncertainty stated by the source.
# Test: self-splicing fitness, log relative to wild type (ln ratio); higher = more splicing; Tetrahymena group I intron in knt gene, E. coli kanamycin selection, DiMSum; sequences stand for … in CUCUCU…GGAGGGAAAAGUUAUCAGGCAUGCACCUGGUAGCUAGUCUUUAAACCAAUAGAUUGCAUCGGUUUAAAAGGCAAGACCGUCAAAUUGCGGGAAAGGGGUCAACAGCCGUUCAGUACCAAGUCUCAGGGGAAACUUUGAGAUGGCCUUGCAAAGGGUAUGGUAAUAAGCUGACGGACAUGGUCCUAACCACGCAGCCAAGUCCUAAGUCAACAGAUCUUCUGUUGAUAUGGAUGCAGUUCACAGACUAAAUGUCGGUCGGGGAAGAUGUAUUCUUCUCAUAAGAUAUAGUCGGACCUCUCCUUAAUGGGAGCUAGCGGAUGAAGUGAUGCAACACUGGAGCCGCUGGGAACUAAUUUGUAUGCGAAAGUAUAUUGAUUAGUUUUGGAGUACUCGUGGUCG
# In short: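 The eight P1ex-region nucleotides of an intron in the knt kanamycin-resistance gene on pET-22b(+) were all randomised and the library put into E. coli BL21(DE3). Six replicate transformations were grown overnight at 37°C or 30°C on LB agar with or without 25 μg/mL kanamycin, together with 100 μg/mL carbenicillin, 50 μM IPTG and 0.2% rhamnose. Colonies were pooled and amplicon-sequenced on an Illumina HiSeq 2500. Fitness from DiMSum is the error-weighted combination of wild-type-normalised replicate fold changes, kanamycin over none.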
Sequence,self-splicing fitness (ln) (30 °C),self-splicing fitness (ln) (37 °C)
CGCGAGCAAUAUUACGGAAC,-3.86 ± 0.22,-2.43 ± 0.29
CGCGAGCAAUAUUACGGAGG,-3.29 ± 0.22,-1.41 ± 0.19
CGCGAGCAAUAUUACGGGAA,-3.74 ± 0.27,-2.4 ± 0.29
CGCGAGCAAUAUUACGGGCU,-3.12 ± 0.21,-1.17 ± 0.24
CGCGAGCAAUAUUACGGGUU,-3.62 ± 0.2,-2.44 ± 0.2
CGCGAGCAAUAUUACGGUAU,-3.65 ± 0.34,-2.81 ± 0.34
CGCGAGCAAUAUUACGUCAU,-2.66 ± 0.23,-1.97 ± 0.33
CGCGAGCAAUAUUACGUUCU,-3.71 ± 0.28,-2.76 ± 0.38
CGCUAGCAAUAUUACGAAGC,-1.15 ± 0.37,
CGCUAGCAAUAUUACGACCU,-1.72 ± 0.19,-1.62 ± 0.18
CGCUAGCAAUAUUACGACGC,,-1.92 ± 0.17
CGCUAGCAAUAUUACGAGCA,-0.28 ± 0.098,0.344 ± 0.12
CGCUAGCAAUAUUACGAGCU,-0.561 ± 0.11,-0.7 ± 0.11
CGCUAGCAAUAUUACGAGGC,-3.54 ± 0.2,-2.95 ± 0.23
CGCUAGCAAUAUUACGAUUA,-3.34 ± 0.35,-2.73 ± 0.31
CGCUAGCAAUAUUACGCAAG,-3.76 ± 0.32,-2.49 ± 0.33
CGCUAGCAAUAUUACGCAGA,-3.28 ± 0.45,-2.38 ± 0.36
CGCUAGCAAUAUUACGCCCA,-0.642 ± 0.11,-0.0477 ± 0.14
CGCUAGCAAUAUUACGGAAA,-2.34 ± 0.41,-1.49 ± 0.33
CGCUAGCAAUAUUACGGACG,-2.4 ± 0.17,-0.45 ± 0.17
CGCUAGCAAUAUUACGGAUU,-3 ± 0.23,-1.52 ± 0.2
CGCUAGCAAUAUUACGGCAA,-0.889 ± 0.099,-0.0297 ± 0.11
CGCUAGCAAUAUUACGGCGA,-2.76 ± 0.28,-2.3 ± 0.24
CGCUAGCAAUAUUACGGCGU,-4.23 ± 0.42,-2.71 ± 0.21
CGCUAGCAAUAUUACGGGGU,-3.83 ± 0.21,-3.12 ± 0.21

Sequence,self-splicing fitness (ln) (30 °C),self-splicing fitness (ln) (37 °C)
CGCUAGCAAUAUUACGGGUU,-2.73 ± 0.082,-2.04 ± 0.11
CGCUAGCAAUAUUACGGUCG,-2.53 ± 0.1,-2.03 ± 0.13
CGCUAGCAAUAUUACGUAUA,-3.36 ± 0.15,-2.55 ± 0.16
CGCUAGCAAUAUUACGUCCC,-2.63 ± 0.16,-1.54 ± 0.19
CGCUAGCAAUAUUACGUGAG,-3.88 ± 0.33,-1.64 ± 0.14
CGCUAGCAAUAUUACGUGAU,-2.34 ± 0.12,-3.44 ± 0.25
CGCUAGCAAUAUUACGUGGA,-3.16 ± 0.2,-2.33 ± 0.18
CGCUAGCAAUAUUACGUGGC,-2.89 ± 0.2,-2.72 ± 0.2
CGCUAGCAAUAUUACGUGUG,-4.15 ± 0.27,-3.12 ± 0.19
CGCUAGCAAUAUUACGUUAG,-3.47 ± 0.18,-2.89 ± 0.24
CGCUAGCAAUAUUACGUUGA,-3.06 ± 0.17,-2.38 ± 0.14
CGCUAGCAAUAUUACGUUGC,-3.3 ± 0.33,-2.98 ± 0.29
CGGAAGCAAUAUUACGACUC,-0.372 ± 0.081,-1.1 ± 0.08
CGGAAGCAAUAUUACGAGUA,,-2.86 ± 0.29
CGGAAGCAAUAUUACGAUGC,,-2.78 ± 0.36
CGGAAGCAAUAUUACGAUUG,-0.86 ± 0.073,-0.25 ± 0.095
CGGAAGCAAUAUUACGAUUU,-3.62 ± 0.2,-1.51 ± 0.15
CGGAAGCAAUAUUACGCAAA,,-2.55 ± 0.33
CGGAAGCAAUAUUACGCAAC,-1.88 ± 0.29,
CGGAAGCAAUAUUACGCACG,,0.981 ± 0.23
CGGAAGCAAUAUUACGCAGG,-1.73 ± 0.095,-1.57 ± 0.11
CGGAAGCAAUAUUACGCCAA,-2.25 ± 0.39,-2.08 ± 0.4
CGGAAGCAAUAUUACGCCAG,-0.858 ± 0.27,-0.336 ± 0.26
CGGAAGCAAUAUUACGCGAG,-1.19 ± 0.15,-1.24 ± 0.27
